Source: the supplement of paper PMC10567573

B1: KRT71 (parent)
chain: FGSRSLYSLGGVRSLNVASGSGKS
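Further: lentivirally expressed fusions sorted by FACS into six bins by GFP to DsRed ratio, PSI derived from sequencing read proportions per bin multiplied by bin number.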

Variants of: B1
Assay: protein stability index of a GFP-peptide fusion (GPS, HEK-293T) (PSI 1-6); higher = more stable
Details: c terminus: a fixed tail appended
With FGSRSLYSLGGVRSLNVASGSYKS the protein stability index was 2.44.
FGSRSLYSLGGVRSLNVASGSQKS gave a protein stability index of 2.09.
Variant FGSRSLYSLGGVRSLNVASGSAKS has a protein stability index of 1.53.
Variant FGSRSLYSLGGVRSLNVASGSRKS has a protein stability index of 2.48.
Work on FGSRSLYSLGGVRSLNVASGSHKS yielded a protein stability index of 2.75.
FGSRSLYSLGGVRSLNVASGSIKS gave a protein stability index of 1.57.
FGSRSLYSLGGVRSLNVASGSLKS showed a protein stability index of 1.64.
With FGSRSLYSLGGVRSLNVASGSFKS the protein stability index was 1.49.
FGSRSLYSLGGVRSLNVASGSPKS showed a protein stability index of 1.89.
With FGSRSLYSLGGVRSLNVASGSVKS the protein stability index was 1.33.
FGSRSLYSLGGVRSLNVASGSCKS gave a protein stability index of 1.69.
FGSRSLYSLGGVRSLNVASGSTKS gave a protein stability index of 1.45.
Work on FGSRSLYSLGGVRSLNVASGSSKS yielded a protein stability index of 1.93.
Work on FGSRSLYSLGGVRSLNVASGSEKS yielded a protein stability index of 2.83.
Work on FGSRSLYSLGGVRSLNVASGSNKS yielded a protein stability index of 2.27.
FGSRSLYSLGGVRSLNVASGSKKS gave a protein stability index of 1.73.
Work on FGSRSLYSLGGVRSLNVASGSWKS yielded a protein stability index of 2.36.
FGSRSLYSLGGVRSLNVASGSMKS showed a protein stability index of 1.93.
In the case of FGSRSLYSLGGVRSLNVASGSDKS, the protein stability index is reported as 2.15.
FGSRSLYSLGGVRSFNVASGSGKS gave a protein stability index of 1.77.
With FGSRSLYSLGGVRSDNVASGSGKS the protein stability index was 1.61.
With FGSRSLYSLGGVRSINVASGSGKS the protein stability index was 1.7.
For FGSRSLYSLGGVRSKNVASGSGKS, the protein stability index was 1.99.
FGSRSLYSLGGVRSQNVASGSGKS showed a protein stability index of 2.51.
Work on FGSRSLYSLGGVRSNNVASGSGKS yielded a protein stability index of 2.33.
FGSRSLYSLGGVRSTNVASGSGKS gave a protein stability index of 1.92.
For FGSRSLYSLGGVRSHNVASGSGKS, the protein stability index was 1.37.
Variant FGSRSLYSLGGVRSENVASGSGKS has a protein stability index of 2.15.
In the case of FGSRSLYSLGGVRSYNVASGSGKS, the protein stability index is reported as 2.62.
In the case of FGSRSLYSLGGVRSRNVASGSGKS, the protein stability index is reported as 2.28.
In the case of FGSRSLYSLGGVRSCNVASGSGKS, the protein stability index is reported as 2.35.
With FGSRSLYSLGGVRSMNVASGSGKS the protein stability index was 2.18.
In the case of FGSRSLYSLGGVRSPNVASGSGKS, the protein stability index is reported as 2.02.
Work on FGSRSLYSLGGVRSSNVASGSGKS yielded a protein stability index of 1.92.
Variant FGSRSLYSLGGVRSWNVASGSGKS has a protein stability index of 1.34.
Work on FGSRSLYSLGGVRSGNVASGSGKS yielded a protein stability index of 1.88.
In the case of FGSRSLYSLGGVRSVNVASGSGKS, the protein stability index is reported as 2.07.
For FGSRSLYSLGGVRSLNVASGSGKF, the protein stability index was 1.41.
FGSRSLYSLGGVRSLNVASGSGKL gave a protein stability index of 1.76.
FGSRSLYSLGGVRSLNVASGSGKV gave a protein stability index of 1.26.
In the case of FGSRSLYSLGGVRSLNVASGSGKD, the protein stability index is reported as 1.89.
FGSRSLYSLGGVRSLNVASGSGKC showed a protein stability index of 1.71.
With FGSRSLYSLGGVRSLNVASGSGKW the protein stability index was 1.74.
With FGSRSLYSLGGVRSLNVASGSGKM the protein stability index was 1.62.
Variant FGSRSLYSLGGVRSLNVASGSGKY has a protein stability index of 1.39.
In the case of FGSRSLYSLGGVRSLNVASGSGKQ, the protein stability index is reported as 1.55.
Variant FGSRSLYSLGGVRSLNVASGSGKT has a protein stability index of 1.81.
FGSRSLYSLGGVRSLNVASGSGKI showed a protein stability index of 1.61.
For FGSRSLYSLGGVRSLNVASGSGKR, the protein stability index was 1.49.
With FGSRSLYSLGGVRSLNVASGSGKG the protein stability index was 1.97.
FGSRSLYSLGGVRSLNVASGSGKP showed a protein stability index of 2.33.
FGSRSLYSLGGVRSLNVASGSGKN showed a protein stability index of 1.7.
With FGSRSLYSLGGVRSLNVASGSGKH the protein stability index was 1.66.
In the case of FGSRSLYSLGGVRSLNVASGSGKA, the protein stability index is reported as 1.73.
For FGSRSLYSLGGVRSLNVASGSGKE, the protein stability index was 2.21.
With FGSRSLYSLGGVRSLNVASGSGKK the protein stability index was 2.22.
Variant FGSRSLYSLGGVRSLNVASRSGKS has a protein stability index of 1.97.
Variant FGSRSLYSLGGVRSLNVASSSGKS has a protein stability index of 1.87.
FGSRSLYSLGGVRSLNVASDSGKS showed a protein stability index of 2.18.
Variant FGSRSLYSLGGVRSLNVASLSGKS has a protein stability index of 1.55.
With FGSRSLYSLGGVRSLNVASHSGKS the protein stability index was 1.67.
Variant FGSRSLYSLGGVRSLNVASVSGKS has a protein stability index of 1.92.
Work on FGSRSLYSLGGVRSLNVASQSGKS yielded a protein stability index of 1.87.
Work on FGSRSLYSLGGVRSLNVASTSGKS yielded a protein stability index of 2.16.
Variant FGSRSLYSLGGVRSLNVASASGKS has a protein stability index of 1.96.
FGSRSLYSLGGVRSLNVASFSGKS showed a protein stability index of 2.04.
FGSRSLYSLGGVRSLNVASCSGKS showed a protein stability index of 1.54.
FGSRSLYSLGGVRSLNVASMSGKS showed a protein stability index of 1.49.
For FGSRSLYSLGGVRSLNVASESGKS, the protein stability index was 1.49.
FGSRSLYSLGGVRSLNVASPSGKS gave a protein stability index of 2.
Variant FGSRSLYSLGGVRSLNVASWSGKS has a protein stability index of 1.82.
FGSRSLYSLGGVRSLNVASKSGKS showed a protein stability index of 1.5.
In the case of FGSRSLYSLGGVRSLNVASNSGKS, the protein stability index is reported as 1.82.
Work on FGSRSLYSLGGVRSLNVASISGKS yielded a protein stability index of 1.72.
Variant FGSRSLYSLGGVRSLNVASYSGKS has a protein stability index of 1.87.
With FGSRSLYSLGGVRSLNVAPGSGKS the protein stability index was 1.8.
Variant FGSRSLYSLGGVRSLNVANGSGKS has a protein stability index of 2.38.
With FGSRSLYSLGGVRSLNVAYGSGKS the protein stability index was 1.89.
For FGSRSLYSLGGVRSLNVAGGSGKS, the protein stability index was 1.67.
Work on FGSRSLYSLGGVRSLNVAMGSGKS yielded a protein stability index of 1.88.
FGSRSLYSLGGVRSLNVAEGSGKS gave a protein stability index of 1.98.
For FGSRSLYSLGGVRSLNVAKGSGKS, the protein stability index was 2.23.
With FGSRSLYSLGGVRSLNVACGSGKS the protein stability index was 1.47.
With FGSRSLYSLGGVRSLNVAVGSGKS the protein stability index was 2.54.
Variant FGSRSLYSLGGVRSLNVARGSGKS has a protein stability index of 1.92.
FGSRSLYSLGGVRSLNVATGSGKS gave a protein stability index of 2.06.
Variant FGSRSLYSLGGVRSLNVAWGSGKS has a protein stability index of 2.85.
FGSRSLYSLGGVRSLNVAAGSGKS showed a protein stability index of 1.8.
With FGSRSLYSLGGVRSLNVAQGSGKS the protein stability index was 2.03.
With FGSRSLYSLGGVRSLNVADGSGKS the protein stability index was 1.89.
For FGSRSLYSLGGVRSLNVAIGSGKS, the protein stability index was 1.44.
For FGSRSLYSLGGVRSLNVALGSGKS, the protein stability index was 1.47.
Variant FGSRSLYSLGGVRSLNVAFGSGKS has a protein stability index of 1.47.
In the case of FGSRSLYSLGGVRSLNVAHGSGKS, the protein stability index is reported as 1.53.
